# Assay results taken from IntAct's records for PubMed 15965644.
# B1: Hereditary hemochromatosis protein (Homo sapiens), Q30201 (parent)
# chain: MGPRARPALLLLMLLQTAVLQGRLLRSHSLHYLFMGASEQDLGLSLFEALGYVDDQLFVFYDHESRRVEPRTPWVSSRISSQMWLQLSQSLKGWDHMFTVDFWTIMENHNHSKESHTLQVILGCEMQEDNSTEGYWKYGYDGQDHLEFCPDTLDWRAAEPRAWPTKLEWERHKIRARQNRAYLERDCPAQLQQLLELGRGVLDQQVPPLVKVTHHVTSSVTTLRCRALNYYPQNITMKWLKDKQPMDAKEFEPKDVLPNGDGTYQGWITLAVPPGEEQRYTCQVEHPGLDQPLIVIWEPSPSGTLVIGVISGIAVFVVILFIGILFIILRKRQGSRGAMGHYVLAERE
# Variants of: B1
# Conditions: with b2mg_human B2M
row,Variant,effect of a mutation on the interaction
1,Q283P,disrupting interaction

# Variants of: B1
# Conditions: with tfr1_human TFRC
row,Variant,effect of a mutation on the interaction
1,Q283P,disrupting interaction
